Legend:
[1] = target: taxol-stabilised microtubules; test: co-sedimentation; microtubule sedimentation, 15 nM tetrameric hKif15 with 30 nM dimeric hTpx2, AMP-PNP, 35 mM sodium phosphate buffer pH 7.0, 1 mM MgCl2, 1 mM EGTA, 1 mM DTT, 20 min at room temperature; conditions: both partners purified
[2] = target: the molecule itself; test: glycerol gradient ultracentrifugation; 5-40% glycerol gradient, 35 mM sodium phosphate buffer, 300 mM NaCl, 1 mM DTT, 4°C, 15 hr; tetramer to dimers
[3] = target: the molecule itself; test: native gel or EMSA; 4-16% Native-PAGE gel stained with coomassie
[4] = target: the molecule itself; test: glycerol gradient ultracentrifugation; 5-40% glycerol gradient, 35 mM sodium phosphate buffer, 0-150 mM NaCl, 1 mM DTT, 4°C, 15 hr; apparent sedimentation coefficients

Sequence of taxol-stabilised microtubules (chain, as listed by the source, chain 1 of 2): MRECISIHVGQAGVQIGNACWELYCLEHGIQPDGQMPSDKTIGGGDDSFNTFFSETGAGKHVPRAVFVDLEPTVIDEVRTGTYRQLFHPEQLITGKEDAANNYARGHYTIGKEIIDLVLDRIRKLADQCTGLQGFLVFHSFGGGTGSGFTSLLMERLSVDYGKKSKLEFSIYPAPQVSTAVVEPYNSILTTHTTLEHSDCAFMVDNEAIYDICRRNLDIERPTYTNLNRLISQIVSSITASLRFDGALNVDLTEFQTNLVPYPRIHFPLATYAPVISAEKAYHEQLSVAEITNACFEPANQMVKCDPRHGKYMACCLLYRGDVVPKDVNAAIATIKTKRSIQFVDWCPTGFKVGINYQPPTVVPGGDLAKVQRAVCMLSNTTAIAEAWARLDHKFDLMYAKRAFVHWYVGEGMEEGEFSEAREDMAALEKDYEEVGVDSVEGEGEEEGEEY
Sequence of taxol-stabilised microtubules (chain, as listed by the source, chain 2 of 2): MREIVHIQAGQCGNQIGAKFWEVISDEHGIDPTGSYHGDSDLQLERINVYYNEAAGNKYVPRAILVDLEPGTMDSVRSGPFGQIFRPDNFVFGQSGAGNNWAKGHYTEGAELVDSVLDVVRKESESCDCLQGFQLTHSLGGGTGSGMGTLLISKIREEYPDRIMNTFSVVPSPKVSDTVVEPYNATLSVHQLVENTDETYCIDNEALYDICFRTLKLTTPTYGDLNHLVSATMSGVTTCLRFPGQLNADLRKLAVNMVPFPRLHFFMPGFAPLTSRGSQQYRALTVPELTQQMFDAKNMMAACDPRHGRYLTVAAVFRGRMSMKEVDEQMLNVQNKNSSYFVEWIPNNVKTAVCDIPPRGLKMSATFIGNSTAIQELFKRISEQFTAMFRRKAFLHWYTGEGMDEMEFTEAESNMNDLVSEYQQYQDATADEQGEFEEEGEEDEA

Row | Binder | KD with 30 nM dimeric hTpx2 [1] [nM] | stoichiometry N [2] | stoichiometry N [3] | stoichiometry N [4]
1 | Full-length human His6-Kif15 (natural protein, UniProt Q9NS87 1-1388, looked up, Kinesin-12 Kif15 (hKlp2), human; complete ORF amplified from a cDNA library of hTERT-RPE1 cells; predicted molecular weight of His6-hKif15 164.8 kDa; A TEV cleavage site lies between His6 and the ORF (His6/TEV element of p11 in a modified pIEx/Bac1 vector); no cleavage is described; Tetramer at physiological ionic strength, dimer at 300 mM NaCl; also called hKif15; His6-hKif15; source: insect SF9 …) MAPGCKTELRSVTNGQSNQPSNEGDAIKVFVRIRPPAERSGSADGEQNLCLSVLSSTSLRLHSNPEPKTFTFDHVADVDTTQESVFATVAKSIVESCMSGYNGTIFAYGQTGSGKTFTMMGPSESDNFSHNLRGVIPRSFEYLFSLIDREKEKAGAGKSFLCKCSFIEIYNEQIYDLLDSASAGLYLREHIKKGVFVVGAVEQVVTSAAEAYQVLSGGWRNRRVASTSMNRESSRSHAVFTITIESMEKSNEIVNIRTSLLNLVDLAGSERQKDTHAEGMRLKEAGNINRSLSCLGQVITALVDVGNGKQRHVCYRDSKLTFLLRDSLGGNAKTAIIANVHPGSRCFGETLSTLNFAQRAKLIKNKAVVNEDTQGNVSQLQAEVKRLKEQLAELASGQTPPESFLTRDKKKTNYMEYFQEAMLFFKKSEQEKKSLIEKVTQLEDLTLKKEKFIQSNKMIVKFREDQIIRLEKLHKESRGGFLPEEQDRLLSELRNEIQTLREQIEHHPRVAKYAMENHSLREENRRLRLLEPVKRAQEMDAQTIAKLEKAFSEISGMEKSDKNQQGFSPKAQKEPCLFANTEKLKAQLLQIQTELNNSKQEYEEFKELTRKRQLELESELQSLQKANLNLENLLEATKACKRQEVSQLNKIHAETLKIITTPTKAYQLHSRPVPKLSPEMGSFGSLYTQNSSILDNDILNEPVPPEMNEQAFEAISEELRTVQEQMSALQAKLDEEEHKNLKLQQHVDKLEHHSTQMQELFSSERIDWTKQQEELLSQLNVLEKQLQETQTKNDFLKSEVHDLRVVLHSADKELSSVKLEYSSFKTNQEKEFNKLSERHMHVQLQLDNLRLENEKLLESKACLQDSYDNLQEIMKFEIDQLSRNLQNFKKENETLKSDLNNLMELLEAEKERNNKLSLQFEEDKENSSKEILKVLEAVRQEKQKETAKCEQQMAKVQKLEESLLATEKVISSLEKSRDSDKKVVADLMNQIQELRTSVCEKTETIDTLKQELKDINCKYNSALVDREESRVLIKKQEVDILDLKETLRLRILSEDIERDMLCEDLAHATEQLNMLTEASKKHSGLLQSAQEELTKKEALIQELQHKLNQKKEEVEQKKNEYNFKMRQLEHVMDSAAEDPQSPKTPPHFQTHLAKLLETQEQEIEDGRASKTSLEHLVTKLNEDREVKNAEILRMKEQLREMENLRLESQQLIEKNWLLQGQLDDIKRQKENSDQNHPDNQQLKNEQEESIKERLAKSKIVEEMLKMKADLEEVQSALYNKEMECLRMTDEVERTQTLESKAFQEKEQLRSKLEEMYEERERTSQEMEMLRKQVECLAEENGKLVGHQNLHQKIQYVVRLKKENVRLAEETEKLRAENVFLKEKKRSES | 490 | 2 | 4 | –
2 | Full-length human His6-Kif15-eGFP (natural protein, UniProt Q9NS87 1-1388, looked up, Kinesin-12 Kif15 (hKlp2), human; complete ORF from a cDNA library of hTERT-RPE1 cells, eGFP inserted via AscI/NotI behind the ORF; His6/TEV element before the ORF as in m1; also called hKif15-eGFP; His6-hKif15-eGFP; source: insect SF9 cells (baculovirus), purified (SP-sepharose cation exchange, then Talon/Co-NTA); not shown: His6, N-terminal, kept; eGFP, C-terminal, kept) MAPGCKTELRSVTNGQSNQPSNEGDAIKVFVRIRPPAERSGSADGEQNLCLSVLSSTSLRLHSNPEPKTFTFDHVADVDTTQESVFATVAKSIVESCMSGYNGTIFAYGQTGSGKTFTMMGPSESDNFSHNLRGVIPRSFEYLFSLIDREKEKAGAGKSFLCKCSFIEIYNEQIYDLLDSASAGLYLREHIKKGVFVVGAVEQVVTSAAEAYQVLSGGWRNRRVASTSMNRESSRSHAVFTITIESMEKSNEIVNIRTSLLNLVDLAGSERQKDTHAEGMRLKEAGNINRSLSCLGQVITALVDVGNGKQRHVCYRDSKLTFLLRDSLGGNAKTAIIANVHPGSRCFGETLSTLNFAQRAKLIKNKAVVNEDTQGNVSQLQAEVKRLKEQLAELASGQTPPESFLTRDKKKTNYMEYFQEAMLFFKKSEQEKKSLIEKVTQLEDLTLKKEKFIQSNKMIVKFREDQIIRLEKLHKESRGGFLPEEQDRLLSELRNEIQTLREQIEHHPRVAKYAMENHSLREENRRLRLLEPVKRAQEMDAQTIAKLEKAFSEISGMEKSDKNQQGFSPKAQKEPCLFANTEKLKAQLLQIQTELNNSKQEYEEFKELTRKRQLELESELQSLQKANLNLENLLEATKACKRQEVSQLNKIHAETLKIITTPTKAYQLHSRPVPKLSPEMGSFGSLYTQNSSILDNDILNEPVPPEMNEQAFEAISEELRTVQEQMSALQAKLDEEEHKNLKLQQHVDKLEHHSTQMQELFSSERIDWTKQQEELLSQLNVLEKQLQETQTKNDFLKSEVHDLRVVLHSADKELSSVKLEYSSFKTNQEKEFNKLSERHMHVQLQLDNLRLENEKLLESKACLQDSYDNLQEIMKFEIDQLSRNLQNFKKENETLKSDLNNLMELLEAEKERNNKLSLQFEEDKENSSKEILKVLEAVRQEKQKETAKCEQQMAKVQKLEESLLATEKVISSLEKSRDSDKKVVADLMNQIQELRTSVCEKTETIDTLKQELKDINCKYNSALVDREESRVLIKKQEVDILDLKETLRLRILSEDIERDMLCEDLAHATEQLNMLTEASKKHSGLLQSAQEELTKKEALIQELQHKLNQKKEEVEQKKNEYNFKMRQLEHVMDSAAEDPQSPKTPPHFQTHLAKLLETQEQEIEDGRASKTSLEHLVTKLNEDREVKNAEILRMKEQLREMENLRLESQQLIEKNWLLQGQLDDIKRQKENSDQNHPDNQQLKNEQEESIKERLAKSKIVEEMLKMKADLEEVQSALYNKEMECLRMTDEVERTQTLESKAFQEKEQLRSKLEEMYEERERTSQEMEMLRKQVECLAEENGKLVGHQNLHQKIQYVVRLKKENVRLAEETEKLRAENVFLKEKKRSES | – | – | – | 4
